Consider four molecules from patent US20230365675A1 (published 2023).

For one experiment, the target named is CD33 on MOLM-13 cells (human, UniProt P20138 18-364). The experiment is described as follows: cell-based or functional assay.
Experiment [1] addresses CD33-GFP fusion protein, wild type (WT), on 293FT cells (UniProt P20138). The experiment is described as follows: FACS, WT CD33-GFP on 293FT cells.
The target of experiment [2] is Mutant CD33-GFP JS23 (L23N) on 293FT cells (UniProt P20138). The experiment is described as follows: FACS, mutant CD33-GFP on 293FT cells. A general note: Flow cytometry measures light scatter and fluorescence of single cells or particles in a stream.
The target in experiment [3] is Mutant CD33-GFP JS24 (Q24E) on 293FT cells (UniProt P20138). The experiment is described as follows: FACS, mutant CD33-GFP on 293FT cells.
Experiment [4] addresses Mutant CD33-GFP JS25 (V25M) on 293FT cells (UniProt P20138). Briefly: FACS, mutant CD33-GFP on 293FT cells.
Experiment [5] addresses Mutant CD33-GFP JS28 (S28L) on 293FT cells (UniProt P20138). The experiment is described as follows: FACS, mutant CD33-GFP on 293FT cells.
The target of experiment [6] is Mutant CD33-GFP M10 (Y127A) on 293FT cells (UniProt P20138). The experiment is described as follows: FACS, mutant CD33-GFP on 293FT cells.
The target in experiment [7] is Mutant CD33-GFP M11 (L78T) on 293FT cells (UniProt P20138). Briefly: FACS, mutant CD33-GFP on 293FT cells.
Experiment [8] deals with Mutant CD33-GFP M12 (G88S) on 293FT cells (UniProt P20138). Briefly: FACS, mutant CD33-GFP on 293FT cells.
The target in experiment [9] is Mutant CD33-GFP M13 (R91E) on 293FT cells (UniProt P20138). The experiment is described as follows: FACS, mutant CD33-GFP on 293FT cells.
Experiment [10] has as its target Mutant CD33-GFP M14 (E170R) on 293FT cells (UniProt P20138). The experiment is described as follows: FACS, mutant CD33-GFP on 293FT cells.
Experiment [11] deals with Mutant CD33-GFP M15 (Q171A) on 293FT cells (UniProt P20138). The experiment is described as follows: FACS, mutant CD33-GFP on 293FT cells.
Experiment [12] deals with Mutant CD33-GFP M16 (4889AII) on 293FT cells (UniProt P20138). The experiment is described as follows: FACS, mutant CD33-GFP on 293FT cells.
Experiment [13] addresses Mutant CD33-GFP M17 (F21Y) on 293FT cells (UniProt P20138). Briefly: FACS, mutant CD33-GFP on 293FT cells.
Experiment [14] concerns the target Mutant CD33-GFP M18 (353AAL) on 293FT cells (UniProt P20138). The experiment is described as follows: FACS, mutant CD33-GFP on 293FT cells.
Experiment [15] addresses Mutant CD33-GFP M19 (348ATAI) on 293FT cells (UniProt P20138). The experiment is described as follows: FACS, mutant CD33-GFP on 293FT cells.
Experiment [16] addresses Mutant CD33-GFP M4 (R122D) on 293FT cells (UniProt P20138). Briefly: FACS, mutant CD33-GFP on 293FT cells.
Experiment [17] concerns the target Mutant CD33-GFP M5 (AEAD), quadruple mutant, on 293FT cells (UniProt P20138). Briefly: FACS, mutant CD33-GFP on 293FT cells.
The target of experiment [18] is Mutant CD33-GFP M9 (Y49, 50A) on 293FT cells (UniProt P20138). Briefly: FACS, mutant CD33-GFP on 293FT cells.
Experiment [19] addresses Mutant CD33-GFP N20D on 293FT cells (UniProt P20138). Briefly: FACS, mutant CD33-GFP on 293FT cells.
In experiment [20] the target is T1, Mutant CD33-GFP M1 (W22A) on 293FT cells (UniProt P20138 18-364).
T1 construct: whole, on cells; not shown: GFP fused to CD33
Briefly: FACS, mutant CD33-GFP on 293FT cells.

Experiment [21] deals with T2, Mutant CD33-GFP M2 (H45E) on 293FT cells (UniProt P20138 18-364).
T2 construct: whole, on cells; not shown: GFP fused to CD33
Briefly: FACS, mutant CD33-GFP on 293FT cells.

Experiment [22] addresses T3, Mutant CD33-GFP M3 (N99A) on 293FT cells (UniProt P20138 18-364).
T3 construct: whole, on cells; not shown: GFP fused to CD33
Briefly: FACS, mutant CD33-GFP on 293FT cells.

Experiment [23] deals with T4, Mutant CD33-GFP M6 (F43N) on 293FT cells (UniProt P20138 18-364).
T4 construct: whole, on cells; not shown: GFP fused to CD33
The experiment is described as follows: FACS, mutant CD33-GFP on 293FT cells.

Experiment [24] has as its target T5, Mutant CD33-GFP M7 (R98D) on 293FT cells (UniProt P20138 18-364).
T5 construct: whole, on cells; not shown: GFP fused to CD33
Briefly: FACS, mutant CD33-GFP on 293FT cells.

The target of experiment [25] is T6, Mutant CD33-GFP M8 (K52A) on 293FT cells (UniProt P20138 18-364).
T6 construct: whole, on cells; not shown: GFP fused to CD33
Briefly: FACS, mutant CD33-GFP on 293FT cells.

Experiment [26] deals with Biotinylated CD33 protein (UniProt P20138). Briefly: Octet competition on biotinylated CD33; competitor 353. In general terms: Biolayer interferometry detects binding as a change in optical thickness at a sensor tip.
Experiment [27] shares this target. The experiment is described as follows: Octet competition on biotinylated CD33; competitor 389.
Experiment [28] has the same target. Briefly: Octet competition on biotinylated CD33; competitor 413.
Experiment [29] shares this target. The experiment is described as follows: Octet competition on biotinylated CD33; competitor 416.
For experiment [30] the target is unchanged. Briefly: Octet competition on biotinylated CD33; competitor 420.
Experiment [31] shares this target. The experiment is described as follows: Octet competition on biotinylated CD33; competitor 424.
For experiment [32] the target is unchanged. Briefly: Octet competition on biotinylated CD33; competitor 426.
Experiment [33] has the same target. The experiment is described as follows: Octet competition on biotinylated CD33; competitor 429.
Experiment [34] shares this target. Briefly: Octet competition on biotinylated CD33; competitor 430.
For experiment [35] the target is unchanged. Briefly: Octet competition on biotinylated CD33; competitor h195.

CD33 on MOLM-13 cells, sequence (P20138 18-364): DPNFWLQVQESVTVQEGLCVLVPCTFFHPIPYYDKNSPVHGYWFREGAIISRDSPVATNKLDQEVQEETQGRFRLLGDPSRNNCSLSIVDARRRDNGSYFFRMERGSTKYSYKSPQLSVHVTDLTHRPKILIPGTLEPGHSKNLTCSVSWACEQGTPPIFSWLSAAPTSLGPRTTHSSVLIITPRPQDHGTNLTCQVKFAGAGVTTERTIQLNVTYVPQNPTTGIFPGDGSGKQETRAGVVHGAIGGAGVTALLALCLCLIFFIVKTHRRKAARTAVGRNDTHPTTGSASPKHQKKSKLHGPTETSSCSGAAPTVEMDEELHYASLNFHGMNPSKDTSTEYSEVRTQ
Biotinylated CD33 protein, sequence (P20138 18-259 limits assumed): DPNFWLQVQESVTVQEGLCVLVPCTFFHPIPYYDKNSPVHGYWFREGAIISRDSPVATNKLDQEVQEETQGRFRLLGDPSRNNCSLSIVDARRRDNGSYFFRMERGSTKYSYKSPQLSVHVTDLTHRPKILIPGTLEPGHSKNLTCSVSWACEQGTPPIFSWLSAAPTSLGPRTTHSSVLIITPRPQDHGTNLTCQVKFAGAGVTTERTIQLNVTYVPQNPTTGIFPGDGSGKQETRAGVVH
Mutant CD33-GFP M9 (Y49, 50A) on 293FT cells, sequence (P20138 other isoform, or with tags, fused parts or gaps mutant): as the sequence (P20138 18-364) above, with Y32A, Y33A counted along it
Mutant CD33-GFP M4 (R122D) on 293FT cells, sequence (P20138 18-364 R122D): as the sequence (P20138 18-364) above, with R105D counted along it
Mutant CD33-GFP JS23 (L23N) on 293FT cells, sequence (P20138 18-364 L23N): as the sequence (P20138 18-364) above, with L6N counted along it
T6 sequence (P20138 18-364 K52A): as the sequence (P20138 18-364) above, with K35A counted along it
Mutant CD33-GFP M14 (E170R) on 293FT cells, sequence (P20138 18-364 E170R): as the sequence (P20138 18-364) above, with E153R counted along it
Mutant CD33-GFP JS24 (Q24E) on 293FT cells, sequence (P20138 18-364 Q24E): as the sequence (P20138 18-364) above, with Q7E counted along it
Mutant CD33-GFP N20D on 293FT cells, sequence (P20138 18-364 N20D): as the sequence (P20138 18-364) above, with N3D counted along it
T5 sequence (P20138 18-364 R98D): as the sequence (P20138 18-364) above, with R81D counted along it
Mutant CD33-GFP JS25 (V25M) on 293FT cells, sequence (P20138 18-364 V25M): as the sequence (P20138 18-364) above, with V8M counted along it
T1 sequence (P20138 18-364 W22A): as the sequence (P20138 18-364) above, with W5A counted along it
Mutant CD33-GFP M5 (AEAD), quadruple mutant, on 293FT cells, sequence (P20138 other isoform, or with tags, fused parts or gaps mutant): as the sequence (P20138 18-364) above, with W5A, H28E, N82A, R105D counted along it
CD33-GFP fusion protein, wild type (WT), on 293FT cells, sequence (P20138 18-364): as the sequence (P20138 18-364) above
Mutant CD33-GFP M15 (Q171A) on 293FT cells, sequence (P20138 18-364 Q171A): as the sequence (P20138 18-364) above, with Q154A counted along it
Mutant CD33-GFP M10 (Y127A) on 293FT cells, sequence (P20138 18-364 Y127A): as the sequence (P20138 18-364) above, with Y110A counted along it
Mutant CD33-GFP M13 (R91E) on 293FT cells, sequence (P20138 18-364 R91E): as the sequence (P20138 18-364) above, with R74E counted along it
Mutant CD33-GFP JS28 (S28L) on 293FT cells, sequence (P20138 18-364 S28L): as the sequence (P20138 18-364) above, with S11L counted along it
Mutant CD33-GFP M11 (L78T) on 293FT cells, sequence (P20138 18-364 L78T): as the sequence (P20138 18-364) above, with L61T counted along it
Mutant CD33-GFP M12 (G88S) on 293FT cells, sequence (P20138 18-364 G88S): as the sequence (P20138 18-364) above, with G71S counted along it
T3 sequence (P20138 18-364 N99A): as the sequence (P20138 18-364) above, with N82A counted along it
T2 sequence (P20138 18-364 H45E): as the sequence (P20138 18-364) above, with H28E counted along it
T4 sequence (P20138 18-364 F43N): as the sequence (P20138 18-364) above, with F26N counted along it
Mutant CD33-GFP M17 (F21Y) on 293FT cells, sequence (P20138 18-364 F21Y): as the sequence (P20138 18-364) above, with F4Y counted along it

B1: Anti-CD33 CAR 6 (other)
chain: QVQLVETGGGLVRAGGSLRLSCAASGRTADIYNIGWFRQAPGKEREFVAAITWIGRTPYYADAVKGRFAFSTDSAKNTVSLQMDNLKPEDTGVYYCNAAHYLEGNTDYYWGQGTQVTVSSAAATTTPAPRPPTPAPTIASQPLSLRPEACRPAAGGAVHTRGLDFACDIYIWAPLAGTCGVLLLSLVITLYCKRGRKKLLYIFKQPFMRPVQTTQEEDGCSCRFPEEEEGGCELRVKFSRSADAPAYQQGQNQLYNELNLGRREEYDVLDKRRGRDPEMGGKPRRKNPQEGLYNELQKDKMAEAYSEIGMKGERRRGKGHDGLYQGLSTATKDTYDALHMQALPPR
For the molecule B1, in the experiment with CD33 on MOLM-13 cells, the Ratio was found to be 3.6 and the “Testing FP2 Expression (CD33+)” value was 22.9 % of constitutive-fluorescence-positive cells.

B2: Anti-CD33 CAR 7 (other)
chain: MELGLSWVVLAALLQGVQAQVQLVQPGGSLRLFCVASEEFFSIYAMGWYRQAPGKQHEMVARFTRDGKITYADSAKGRFTITRDAKNTLNLQMNGLIPEDTAVYYCNINHYWGQGTQVTVSSAAATTTPAPRPPTPAPTIASQPLSLRPEACRPAAGGAVHTRGLDFACDIYIWAPLAGTCGVLLLSLVITLYCKRGRKKLLYIFKQPFMRPVQTTQEEDGCSCRFPEEEEGGCELRVKFSRSADAPAYQQGQNQLYNELNLGRREEYDVLDKRRGRDPEMGGKPRRKNPQEGLYNELQKDKMAEAYSEIGMKGERRRGKGHDGLYQGLSTATKDTYDALHMQALPPR
On to B2, for which, in the experiment with CD33 on MOLM-13 cells, the Ratio was found to be 1.98 and the “Testing FP2 Expression (CD33+)” value is 17.6 % of constitutive-fluorescence-positive cells.

B3: sdCD33_2 (VHH)
VHH: QVQLVQPGGSLRLFCVASEEFFSIYAMGWYRQAPGKQHEMVARFTRDGKITYADSAKGRFTITRDAKNTLNLQMNGLIPEDTAVYYCNINHYWGQGTQVTVSS
As for B3, the FACS binding data in [1] came to 98.3; in experiment [2], 95.4; in experiment [3], 98.8; in experiment [4], 99.3; in [5], 99.5; in [6] it was 98.5. Moreover, the FACS binding data in experiment [7] was 33.4; in experiment [8], 98.2; in experiment [9], 98.6; in [10], 98.2; in [11], 98.7; in experiment [12], 98.4. The FACS binding data was 98.9 in experiment [13]; 97.3 in experiment [14]; 99 in [15]; 1.43 in experiment [16]; 0.41 in [17]; 0.39 in experiment [18]. For the same molecule, the FACS binding data was 98.9 in [19]; 8.08 in [20]; 2.54 in [21]; 81.9 in experiment [22]; 95.3 in experiment [23]; 0.48 in [24]. Also, in experiment [25], the FACS binding data is 91.2. Moreover, the Octet signal stood at 0.322 in [26]; 0.584 in [27]; 0.623 in [28]; 0.0635 in [29]; 0.381 in [30]; 0.0143 in experiment [31]. In addition, the Octet signal in experiment [32] turned out to be 0.158; in experiment [33], 0.0422; in experiment [34] it was 0.651; in [35] it was 0.799.

B4: Anti-CD33-CAR5 (other)
chain: QVKLEESGGGSVQAGESLRLSCTASGITFRDYDIDWYRQAPGKEREWLATITPSGTTHYPDSVKGRATISRDSAKNTVYLQMNSLKPEDTARYECNTLAYWGSGTQVTVSSAAATTTPAPRPPTPAPTIASQPLSLRPEACRPAAGGAVHTRGLDFACDIYIWAPLAGTCGVLLLSLVITLYCKRGRKKLLYIFKQPFMRPVQTTQEEDGCSCRFPEEEEGGCELRVKFSRSADAPAYQQGQNQLYNELNLGRREEYDVLDKRRGRDPEMGGKPRRKNPQEGLYNELQKDKMAEAYSEIGMKGERRRGKGHDGLYQGLSTATKDTYDALHMQALPPR
As for B4, in the experiment with CD33 on MOLM-13 cells, the Ratio turned out to be 8.5 and the “Testing FP2 Expression (CD33+)” value was 28.2 % of constitutive-fluorescence-positive cells.
